Experimental data reported in patent US20170210813A1 (Regeneron, published 2017).
One block for each binder: values may come before it.

Key:
hPDGFRb.mmh [1] = biological target: T1, hPDGFRb.mmh (human, UniProt P09619 33-531); assay: blocking ELISA, biot-hPDGFRb.mmh to coated PDGF-BB
T1 construct: Soluble monomeric construct; also called soluble human PDGFR-beta.mmh
Protocol: The equilibrated PDGFR-beta/antibody solutions were added to ligand-coated plates, allowed to incubate for 1 hr, and washed. Levels of bound biot-hPDGFR-beta.mmh were detected using HRP conjugated streptavidin. Data were analyzed using Prism software and IC₅₀ values were calculated as the amount of antibody required to achieve 50% reduction of hPDGFR-beta-mmh bound to ligand. Maximum blocking values were also calculated and reflect the ability of the antibody to block relative to baseline. The absorbance measured at the constant amount of 250 pM biot-hPDGFR-beta-mmh on the dose curve is defined as 0% blocking and the absorbance with no added PDGFR-beta is defined as 100%. The absorbance of the wells containing the highest antibody concentration determined the maximum blocking percent.

hPDGFRb.mmh [2] = biological target: T1, hPDGFRb.mmh; assay: SPR, mAb captured, 37 C
Protocol: (§1) Antibodies, expressed as either mouse Fc (prefix H1M; H2M) or human Fc (prefix H4H), were captured on their respective anti-Fc sensor surfaces (Mab capture format). […] Kinetic association (kₐ) and dissociation (kd) rate constants were determined by processing and fitting the data to a 1:1 binding model using Scrubber 2.0 curve fitting software.

human PDGFRb.mFc = biological target: T2, human PDGFRb.mFc (human); assay: SPR, mAb captured, 25 C
T2 construct: Soluble dimeric construct with mouse Fc; also called hPDGFRb.mFc; soluble human PDGFR-beta.mFc
T2 chain: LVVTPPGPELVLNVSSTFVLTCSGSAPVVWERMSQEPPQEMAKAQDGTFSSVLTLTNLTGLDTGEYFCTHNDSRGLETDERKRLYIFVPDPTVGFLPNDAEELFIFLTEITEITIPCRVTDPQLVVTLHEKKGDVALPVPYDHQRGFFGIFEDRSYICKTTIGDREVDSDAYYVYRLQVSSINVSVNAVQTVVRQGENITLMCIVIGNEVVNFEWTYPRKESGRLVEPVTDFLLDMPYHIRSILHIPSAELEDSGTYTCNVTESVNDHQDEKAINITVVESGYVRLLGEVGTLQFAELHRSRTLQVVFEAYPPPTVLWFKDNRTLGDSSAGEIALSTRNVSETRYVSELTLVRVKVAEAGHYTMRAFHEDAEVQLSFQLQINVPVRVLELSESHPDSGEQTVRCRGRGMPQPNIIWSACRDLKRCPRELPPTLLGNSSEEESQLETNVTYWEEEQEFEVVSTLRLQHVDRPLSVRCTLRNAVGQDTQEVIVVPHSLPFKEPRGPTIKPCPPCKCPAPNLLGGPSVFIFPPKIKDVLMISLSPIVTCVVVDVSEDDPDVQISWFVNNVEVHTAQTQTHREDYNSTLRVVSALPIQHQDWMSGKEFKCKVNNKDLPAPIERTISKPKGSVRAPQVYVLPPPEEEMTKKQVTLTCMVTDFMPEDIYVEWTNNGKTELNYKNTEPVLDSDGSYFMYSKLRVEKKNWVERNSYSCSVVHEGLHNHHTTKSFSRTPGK
Protocol: as §1

[3] = biological target: T3, Macaca fascicularis PDGFRb.mmh (Macaca fascicularis); assay: SPR, mAb captured, 25 C
T3 construct: Soluble monomeric construct; also called mfPDGFRb.mmh
T3 chain: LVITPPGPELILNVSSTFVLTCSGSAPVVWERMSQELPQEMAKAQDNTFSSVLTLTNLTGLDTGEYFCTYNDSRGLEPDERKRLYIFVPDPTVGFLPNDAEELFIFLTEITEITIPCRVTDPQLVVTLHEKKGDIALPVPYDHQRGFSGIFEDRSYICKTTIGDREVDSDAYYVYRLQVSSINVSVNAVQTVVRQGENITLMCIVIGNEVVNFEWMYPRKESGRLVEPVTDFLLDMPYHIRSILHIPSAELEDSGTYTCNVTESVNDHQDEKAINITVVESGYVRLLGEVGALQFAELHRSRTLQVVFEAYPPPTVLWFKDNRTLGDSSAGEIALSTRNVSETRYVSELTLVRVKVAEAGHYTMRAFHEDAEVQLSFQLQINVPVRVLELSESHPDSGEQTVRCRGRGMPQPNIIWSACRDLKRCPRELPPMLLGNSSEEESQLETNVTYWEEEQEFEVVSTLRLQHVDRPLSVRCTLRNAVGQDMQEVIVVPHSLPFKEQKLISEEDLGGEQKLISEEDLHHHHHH
Protocol: as §1

hPDGFRb.mmh [4] = biological target: T1, hPDGFRb.mmh; assay: SPR, mAb captured, 25 C
Protocol: as §1

[5] = biological target: full length human PDGFR-beta on HEK293 cells (human, UniProt P09619 33-1106); assay: cell-based or functional assay

% Maximum Blocking (hPDGFRb.mmh [1]): 67% | IC50 (hPDGFRb.mmh [1]): 7.6 nM | Kd (hPDGFRb.mmh [2]): 68.6 nM | koff (hPDGFRb.mmh [2]): 0.00217 s⁻¹ | kon (hPDGFRb.mmh [2]): 31600 M⁻¹ s⁻¹ | t1/2 (hPDGFRb.mmh [2]): 0.0833 h | Kd (human PDGFRb.mFc): 6.35 nM | koff (human PDGFRb.mFc): 0.000165 s⁻¹ | kon (human PDGFRb.mFc): 25900 M⁻¹ s⁻¹ | t1/2 (human PDGFRb.mFc): 1.17 h | binding result [3]: no binding | Kd (hPDGFRb.mmh [4]): 43.5 nM | koff (hPDGFRb.mmh [4]): 0.00092 s⁻¹ | kon (hPDGFRb.mmh [4]): 21100 M⁻¹ s⁻¹ | t1/2 (hPDGFRb.mmh [4]): 0.217 h | IC50, blocking PDGF-BB (250 pM) activation, SRE-luciferase [5]: 5.6e-10 M | IC50, blocking PDGF-DD (400 pM) activation, SRE-luciferase [5]: 4.2e-10 M
B1: H1M3299N (antibody, mouse IgG1, V domains shown)
VH: QVQLVESGGGVVQPGRSLRLSCAASGFTFSSYGLHWVRQAPGKGLEWVALISNVGSNKYYADSVKGRFTISRDNSKNSLFLQMNSLRAEDTAVYYCAKGADYYYYGMDVWGQGTTVTVSS
VL: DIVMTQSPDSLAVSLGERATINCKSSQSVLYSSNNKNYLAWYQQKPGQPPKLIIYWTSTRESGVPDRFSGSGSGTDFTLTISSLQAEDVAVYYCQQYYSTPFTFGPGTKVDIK
notes: mouse IgG1 Fc (H1M prefix)

% Maximum Blocking (hPDGFRb.mmh [1]): 76% | IC50 (hPDGFRb.mmh [1]): 0.1 nM | Kd (hPDGFRb.mmh [2]): 27.4 nM | koff (hPDGFRb.mmh [2]): 0.00833 s⁻¹ | kon (hPDGFRb.mmh [2]): 304000 M⁻¹ s⁻¹ | t1/2 (hPDGFRb.mmh [2]): 0.0233 h | Kd (human PDGFRb.mFc): ≤ 0.0765 nM | koff (human PDGFRb.mFc): ≤ 1e-06 s⁻¹ | kon (human PDGFRb.mFc): 13100 M⁻¹ s⁻¹ | t1/2 (human PDGFRb.mFc): 192 h | Kd [3]: 3.9 nM | koff [3]: 3.89e-05 s⁻¹ | kon [3]: 10000 M⁻¹ s⁻¹ | t1/2 [3]: 4.95 h | Kd (hPDGFRb.mmh [4]): 7.29 nM | koff (hPDGFRb.mmh [4]): 0.00126 s⁻¹ | kon (hPDGFRb.mmh [4]): 173000 M⁻¹ s⁻¹ | t1/2 (hPDGFRb.mmh [4]): 0.15 h | IC50, blocking PDGF-BB (250 pM) activation, SRE-luciferase [5]: 6.8e-09 M | IC50, blocking PDGF-DD (400 pM) activation, SRE-luciferase [5]: 8.4e-11 M
B2: H1M3361N (antibody, mouse IgG1, V domains shown)
VH: EVQLVESGGGLVQPGGSLRLSCAASGFTFSSYWMTWVRQAPGKGLEWVANIRQDGSDKYYVDSVKGRFTISRDNAKNSLFLQMNSLRAEDTAVYYCARTNGGTYGYNHYYYGMDVWGQGTTVTVSS
VL: DIQMTQSPSSLSASVGDRVTITCRASQGIRNDLGWYQLKPGKAPKRLIFAASSLQSGVPSRFSGSGSGTEFTLTISSLQPEDFATYYCLQHNSYPWTFGQGTKVEIK
notes: mouse IgG1 Fc (H1M prefix)

% Maximum Blocking (hPDGFRb.mmh [1]): 88% | IC50 (hPDGFRb.mmh [1]): 0.12 nM | Kd (hPDGFRb.mmh [2]): 1.83 nM | koff (hPDGFRb.mmh [2]): 6.46e-05 s⁻¹ | kon (hPDGFRb.mmh [2]): 35300 M⁻¹ s⁻¹ | t1/2 (hPDGFRb.mmh [2]): 2.98 h | Kd (human PDGFRb.mFc): ≤ 0.0789 nM | koff (human PDGFRb.mFc): ≤ 1e-06 s⁻¹ | kon (human PDGFRb.mFc): 12700 M⁻¹ s⁻¹ | t1/2 (human PDGFRb.mFc): 192 h | Kd [3]: ≤ 0.1 nM | koff [3]: 1e-06 s⁻¹ | t1/2 [3]: 192 h | Kd (hPDGFRb.mmh [4]): ≤ 0.07 nM | koff (hPDGFRb.mmh [4]): ≤ 1e-06 s⁻¹ | kon (hPDGFRb.mmh [4]): 14000 M⁻¹ s⁻¹ | t1/2 (hPDGFRb.mmh [4]): 192 h | IC50, blocking PDGF-BB (250 pM) activation, SRE-luciferase [5]: 2.3e-08 M | IC50, blocking PDGF-DD (400 pM) activation, SRE-luciferase [5]: 2.8e-10 M
B3: H1M3310N (antibody, mouse IgG1, V domains shown)
VH: EVQLLESGGDLVQPGGSLRLSCAASGITFSSFAMSWVRQAPGKGLEWVSTVSVSAGITYYADSVKGRFTISRDNSKNTLYLQMNSLRAEDTAIYYCAKSSCTTNSCPAYFDYWGLGTLVTVSS
VL: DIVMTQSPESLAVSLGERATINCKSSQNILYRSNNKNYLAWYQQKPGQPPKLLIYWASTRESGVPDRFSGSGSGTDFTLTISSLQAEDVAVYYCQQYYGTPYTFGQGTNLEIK
notes: mouse IgG1 Fc (H1M prefix)
